Results: a protein production outcome set (Wang et al. 2014)

Experiment: label from the status in PepcDB records

Row | Sequence | protein production
1 | MESRWNDEDAARFVEAARAEGQSEALGLRIYTSRLIGSDPDLVLHGGGNTSVKIRSDEGEQLMHIKGSGWDLDTIEAPGLPAVRLASLLEARNTPKLSDPDMVLLLRASLIEKDAPNPSVEALLHAFIPFDYVDHTHATAVLALADQPNMRDAIRRIYGDRLAYVPYVMPGFDLSIAADRIYRSHSDCEGLWLENHGLFSFANDARASYDLMIEFVTLAEQELARAGVALSGPQPNDGER | failed
2 | EQVFAAECILSKRLRKGKLEYLVKWRGWSSKHNSWEPEENILDPRLLLAFQKKEHEKEVQN | not failed
3 | MPQRRPLRTMKWLIPGLWLASILFAHFRGRVRLSLSRQMLDHSVLLAPVNAFMVLTSRVPTTPYLTTSEIPELKVLDDNWETIRDEALKMAELRRIKAAERHDDIGFNSFFKYGWKRFYLKWYDARHPSAEELCPKTVAILKSLPKVKAAMFAELPPGGKLNPHRDPFSGSLRYHLGLATPNDDRCYIAVDGESYSWRDGESVVFDETYVHEAHNKSEGNRIILFCDVERPLKWRWAEAFNRWFGRVVMSAASSPNDAGDQTGAINKLTHAHWVIDQKRKQFKAWNRTVYKATKWGLIALVAIGFLAL | failed
4 | LGLVCLTVGPEVRFRTVTLSRYRALSPAEREAKLLDLYSSNIKTLRGAADYCAAHDIRLYRLSSSLFPMLDLAGDDTGAAVLTHLAPQLLEAGHAFTDAGVRLLMHPEQFIVLNSDRPEVRESSVRAMSAHARVMDGLGLARTPWNLLLLHGGKGGRGAELAALIPDLPDPVRLRLGLENDERAYSPAELLPICEATGTPLVFDAHHHVVHDKLPDQEDPSVREWVLRARATWQPPEWQVVHLSNGIEGPQDRRHSHLIADFPSAYADVPWIEVEAKGKEEAIAALRLMAPFKKD | failed
5 | MSDCSFIIVGGGGHARVVASTLRRLGETILGFTDPDEEATLGDGIEHLGRDKILTEKDPSKVALTMGMGSVRDTGHRAGLFTEQVENGFRFPTLIHPDAVLASEAKTKAGVQVMAGGVIQPGASLGENVIVNTNASVDHDCQIGAHSHVASGATLSGEVVLESQVHVGTGASIIQGVDVGKNSVVGAGAVVIEDVPPETVVIGVPAHPK | failed
6 | MAGSSTSSSEACTDPYLRCAFNGAALTALGISHSALLAHSPQGCEYLVNNAFASQECDYMETMTLCTKLCVDEIVHGGEDILARTIREVKDLPISALFVLSACGPEIVGDDIVGVCEALQPEVKFRLVPIESAGFRGSQYDGIDIAMDTILKKLVKDDVEKIPGSVCLVAPHANANPTWPADLAWVKQVLFRMGIKVVATLTHRTPIAEIENIASAETSLLLSHDAGQKAADYLSATFGIEQVCKGIPLPIGMTNTQRWLTALGDRFDILKTAEEIVAEGERMVMATCRRKWPMARFMYRTPAAIVADATVGIPLVRFVTEEMEMTPELVALYTSHRSVWELLEGELKSLGLNPKVVYGTDVYKTRKSLQEVRPRVVFGSTIERHASEGLPVAYVVEVVRMMRQFRMINREYFGYTGILNLLECVQNEWVMGWRSKERRYEAKW | failed
7 | MHSQFAPRLRQLRWYEIVLIATVAAALCIYLPIVVKRSAVQGFGDVQVFFRAAWAVWTGYPLYQVADHHGWTYHYPPTFALLMGPFAHPLDGFPKPDWALSLPLSVATWYVFSAAAMLAAVDLWARGLERALPPSLDQADWSAWWLLRLGPVAALLPFFGDGLGRGQPSAVVLLTMVAFLVLYLRGRIYLAACALALGFTIKLFPLALLIFPVLRRDLRTVLATFGFSAVFLFVVPMLCLGPSEVVKLYGAMWTEHLSGIFTGVPNPKIADEITFTSYDMLSIGAMLARIAAGGLPETDTLPRFATICQLMFDAVVIGALLWLGHGRFWRLRGPQPPLGPSLLIGGALLCAALPVMLSVSQPNYVAFAAPLVALVQFEVWRRRGRVCVVPALIAWSGLMWLGMIATEGGAWQPLRVVGLVTPALIALLLWGFASLRRAAAPP | failed
8 | MSLSFMIGYSWTQTEPGQVNHILDQFLSSMVREAGAVNYFVLPFPFSEDRSQIDIYRDLIRSGNVDGFVLSSINYNDPRVQFLLKQKFPFVAFGRSNPDWDFAWVDIDGTAGTRQAVEYLIGRGHRRIAILAWPEDSRVGNDRLQGYLEAMQTAQLPIETGYILRGEGTFEVGRAMTLHLLDLSPERRPTAIMTLNDTMAIGAMAAARERGLTIGTDLAIIGFDDAPMVQYLFPPLSSVRQPIAEAGRKCIELLVAIVEGREPEQKHILLQPSLIIRASEGLITITTDPNSSSVDKLAAALEHHHHHH | not failed
